Measured values as given in US20060199195A1 (CEDARS SINAI MEDICAL CENTER, published 2006).

B1: glutathione-S-transferase fusion of the C-terminal domain of schwannomin isoform 1 (GSTNF2CL, schwannomin residues 469-595) (other)
chain: KQKLLEIATKPTYPPMNPIPAPLPPDIPSFNLIGDSLSFDFKDTDMKRLSMEIEKEKVEYMEKSKHLQEQLNELKTEIEALKLKERETALDILHNENSDRGGSSKHNTIKKLTLQSAKSRVAFFEEL
notes: Expressed in E. coli DH5α, purified on Sepharose 4B-glutathione; predicted 40.0 kDa; also called isoform 1 C-terminal domain GST fusion; not shown: Glutathione-S-transferase of pGEX-5X-1 and its linker

Tests used:
[1] = target: maltose binding protein (MBP) with no fusion protein (UniProt P0AEX9 27-392 = MBP); assay: pull-down on amylose resin, Western blot with Ab5990
Protocol: (§1) Purified MBP or MBP fusions were incubated with fresh amylose resin for 5 minutes at room temperature and 2.5 minutes at 4° C. in column buffer (20 mM Tris-HCl, pH 7.4, 200 mM NaCl, 1 mM EDTA, 2 μg/ml aprotinin, 0.5 mg/ml Perfabloc SC), and washed three times with binding buffer (160 mM NaCl, 2.5 mM MgCl₂, 1.5 mM CaCl₂, […], 50 mM hepes, pH 7.4, 1% Triton X-100, 2 μg/ml aprotinin, and 0.5 mg/ml Pefabloc SC). Saturated amylose resin was incubated with equivalent amounts of GSTNF2CL or GSTNF2I2CL for 20 min at 4° C. and washed three times with binding buffer. The quantities were normalized by conducting dot blots of serial dilutions detected with anti-GST antibody (Pharmacia). Western blot analysis was conducted as described using affinity purified rabbit anti-spectrin (Sigma S1515), and anti-schwannomin (Ab5990, recognizes C-terminal domain) polyclonal antibodies (Huynh and Pulst (1996)).
(§2) Glutathione-S-transferase (GST) fusions were purified with the C-terminal domain of schwannomin isoform 1 (GSTNF2CL, schwannomin residues 469-595) or isoform 2 (GSTNF2I2CI, schwannomin residues 469-590). When the MBPSp-amylose resin was incubated with schwannomin-GST fusion proteins, the proteins eluted from the washed resin were recognized by an anti-schwannomin antibody (Ab5990). […]

[2] = target: B1; assay: pull-down on amylose resin, Western blot
Protocol: as §1, §2

[3] = target: T1, full-length schwannomin isoform 1 fused to the GAL4 binding domain (pGBT9NF2, residues 1-595) (Homo sapiens (Human), UniProt P35240 1-595); assay: yeast two-hybrid, β-galactosidase filter assay
T1 construct: Yeast two-hybrid bait; also called pGPT9NF2; GAL4-NF2
T1 sequence: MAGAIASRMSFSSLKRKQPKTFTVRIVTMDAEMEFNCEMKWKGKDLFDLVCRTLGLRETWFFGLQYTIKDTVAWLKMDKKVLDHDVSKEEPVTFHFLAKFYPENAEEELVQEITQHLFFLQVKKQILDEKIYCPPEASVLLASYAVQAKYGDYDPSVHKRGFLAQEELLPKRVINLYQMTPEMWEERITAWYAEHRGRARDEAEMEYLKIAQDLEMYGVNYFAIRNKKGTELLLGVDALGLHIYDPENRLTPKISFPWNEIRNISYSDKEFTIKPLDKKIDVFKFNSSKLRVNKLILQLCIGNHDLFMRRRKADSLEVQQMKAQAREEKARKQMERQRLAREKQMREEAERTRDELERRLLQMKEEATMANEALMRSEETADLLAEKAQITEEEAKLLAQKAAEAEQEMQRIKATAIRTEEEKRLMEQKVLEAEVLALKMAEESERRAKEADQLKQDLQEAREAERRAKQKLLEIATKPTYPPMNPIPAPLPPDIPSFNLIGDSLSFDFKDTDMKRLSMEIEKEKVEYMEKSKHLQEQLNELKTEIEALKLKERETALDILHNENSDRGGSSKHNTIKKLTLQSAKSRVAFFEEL
Description: Double-transformant pGBT9NF2I2CL and pGAD10Sp is weakly positive for β-galactosidase in the filter assay; the trace blue color is not visible in the photo. Right: Histogram illustrating results of semiquantitative liquid assays for β-galactosidase activity (Poullet and Tamanio, Methods in Enzymol. 255:488-497 (1995)). Three controls are included: pGBT9NF1 and pGADGHRas, negative pGBT9NF2 and PGADGH, negative pGBT9 and pGAD105p. β-Galactosidase units=1000×[OD₄₂₀/(OD₆₀₀×times×culture volume)]. Bars show mean and standard deviation of three replicate clones from one transformation. Except for pGBT9NF2C and pGBT9NF2I2C, liquid assays for each construct were conducted at the same time, and for all constructs, the same clones were used in filter assays, and results were reproducible. FIG. 1(B) Control β-galactosidase filter assays of indicated double transformants showing high activity for a known positive interaction between NF1 and Ras (Poullet and Tamanio, (1995)), no detectable interaction between GAL4-NF2 and an unrelated protein, CD44 (conserved cytoplasmic domain, last 70 residues), and no detectable interaction between other negative controls. […]

[4] = target: T1, full-length schwannomin isoform 1 fused …; assay: yeast two-hybrid, liquid β-galactosidase assay, control

B1: no binding [1].

B2: MBP fused with β-spectrin residues 1885-1967 (other, UniProt Q01082 1885-1967, looked up, not shown: large carriers)
chain: RENEVLEAWKSLLDACESRRVRLVDTGDKFRFFSMVRDLMLWMEDVIRQIEAQEKPRDVSSVELLMNNHQGIKAEIDARNDSF
B2: no binding [2].

B3: MBP fused with β-spectrin residues 1885-1992 (other, UniProt Q01082 1885-1992, looked up, not shown: large carriers)
chain: RENEVLEAWKSLLDACESRRVRLVDTGDKFRFFSMVRDLMLWMEDVIRQIEAQEKPRDVSSVELLMNNHQGIKAEIDARNDSFTTCIELGKSLLARKHYASEEIKEKL
B3: no binding [2].

B4: CD44 (conserved cytoplasmic domain, last 70 residues) (other, UniProt P16070 673-742, looked up, not shown: large carriers)
chain: RRRCGQKKKLVINSGNGAVEDRKPSGLNGEASKSQEMVHLVNKESSETPDQFMTADETRNLQNVDMKIGV
notes: domain: conserved cytoplasmic domain, last 70 residues; Unrelated control protein in the two-hybrid filter assay
B4: no binding [3].

B5: GAL4 activation domain alone (pGADGH, no insert) (other, UniProt P04386 768-881, looked up)
chain: ANFNQSGNIADSSLSFTFTNSSNGPNLITTQTNSQALSQPIASSNVHDNFMNNEITASKIDDGNNSKPLSPGWTDQTAYNAFGITTGMFNTTTMDDVYNYLFDDEDTPPNPKKE
notes: Negative control
B5: no binding [4].
